From the MegaScale stability set (Tsuboyama et al. 2023)

B1: 6YSE (parent)
chain: HERALMVNRLQKLTRMLRVHPDPKWKQEQQELIKRLK

Variants of: B1
Test: folding stability dG (cDNA display proteolysis); higher = more stable
Details: PBS, room temperature

| Variant | folding stability dG |
| --- | --- |
| HERALMVNRLQKLTRMLRVHPDPKWKQEQQELIFRLK [K34F] | 1.2 kcal/mol |
| HERALMVNRLQKLTRMLRVHPDPKWKQEQQELIIRLK [K34I] | 1.31 kcal/mol |
| HERALMVNRLQKLTRMLRVHPDPKWKQEQQELIMRLK [K34M] | 1.34 kcal/mol |
| HERALMVNRLQKLTRMLRVHPDPKWKQEQQELILRLK [K34L] | 1.15 kcal/mol |
| HERALMVNRLQKLTRMLRVHPDPKWKQEQQELIERLK [K34E] | 1.14 kcal/mol |
| HERALMVNRLQKLTRMLRVHPDPKWKQEQQELINRLK [K34N] | 1 kcal/mol |
| HERALMVNRLQKLTRMLRVHPDPKWKQEQQELIVRLK [K34V] | 1.03 kcal/mol |
| HERALMVNRLQKLTRMLRVHPDPKWKQEQQELIHRLK [K34H] | 1.11 kcal/mol |
| HERALMVNRLQKLTRMLRVHPDPKWKQEQQELISRLK [K34S] | 1.07 kcal/mol |
| HERALMVNRLQKLTRMLRVHPDPKWKQEQQELIDRLK [K34D] | 0.366 kcal/mol |
| HERALMVNRLQKLTRMLRVHPDPKWKQEQQELIQRLK [K34Q] | 1.25 kcal/mol |
| HERALMVNRLQKLTRMLRVHPDPKWKQEQQELITRLK [K34T] | 1.27 kcal/mol |
| HERALMVNRLQKLTRMLRVHPDPKWKQEQQELIARLK [K34A] | 1.37 kcal/mol |
| HERALMVNRLQKLTRMLRVHPDPKWKQEQQELIWRLK [K34W] | 0.902 kcal/mol |
| HERALMVNRLQKLTRMLRVHPDPKWKQEQQELIGRLK [K34G] | 0.802 kcal/mol |
| HERALMVNRLQKLTRMLRVHPDPKWKQEQQELIYRLK [K34Y] | 1.02 kcal/mol |
| HERALMVNRLQKLTRMLRVHPDPKWKQEQQELIRRLK [K34R] | 1.51 kcal/mol |
| HERALMVNRLQKLTRMLRVHPDPKWKQEQQELICRLK [K34C] | 1.59 kcal/mol |
| HERALMVNRLQKLTRMLRVHPDPKWKQEQYELIKRLK [Q30Y] | 1.04 kcal/mol |
| HERALMVNRLQKLTRMLRVHPDPKWKQEQWELIKRLK [Q30W] | 1.39 kcal/mol |
| HERALMVNRLQKLTRMLRVHPDPKWKQEQSELIKRLK [Q30S] | 1.11 kcal/mol |
| HERALMVNRLQKLTRMLRVHPDPKWKQEQVELIKRLK [Q30V] | 1.1 kcal/mol |

| Variant | folding stability dG |
| --- | --- |
| HERALMVNRLQKLTRMLRVHPDPKWKQEQLELIKRLK [Q30L] | 1.52 kcal/mol |
| HERALMVNRLQKLTRMLRVHPDPKWKQEQTELIKRLK [Q30T] | 1.13 kcal/mol |
| HERALMVNRLQKLTRMLRVHPDPKWKQEQRELIKRLK [Q30R] | 1.21 kcal/mol |
| HERALMVNRLQKLTRMLRVHPDPKWKQEQMELIKRLK [Q30M] | 1.42 kcal/mol |
| HERALMVNRLQKLTRMLRVHPDPKWKQEQNELIKRLK [Q30N] | 0.979 kcal/mol |
| HERALMVNRLQKLTRMLRVHPDPKWKQEQQELIKKLK [R35K] | 1.51 kcal/mol |
| HERALMVNRLQKLTRMLRVHPDPKWKQEQQELIKQLK [R35Q] | 1.19 kcal/mol |
| HERALMVNRLQKLTRMLRVHPDPKWKQEQQELIKHLK [R35H] | 0.82 kcal/mol |
| HERALMVNRLQKLTRMLRVHPDPKWKQEQQELIKELK [R35E] | 0.729 kcal/mol |
| HERALMVNRLQKLTRMLRVHPDPKWKQEQQELIKTLK [R35T] | 0.734 kcal/mol |
| HERALMVNRLQKLTRMLRVHPDPKWKQEQQELIKVLK [R35V] | 1.14 kcal/mol |
| HERALMVNRLQKLTRMLRVHPDPKWKQEQQELIKNLK [R35N] | 0.739 kcal/mol |
| HERALMVNRLQKLTRMLRVHPDPKWKQEQQELIKSLK [R35S] | 0.493 kcal/mol |
| HERALMVNRLQKLTRMLRVHPDPKWKQEQQELIKYLK [R35Y] | 1.16 kcal/mol |
| HERALMVNRLQKLTRMLRVHPDPKWKQEQQELIKDLK [R35D] | -0.514 kcal/mol |
| HERALMVNRLQKLTRMLRVHPDPKWKQEQQELIKALK [R35A] | 1.24 kcal/mol |
| HERALMVNRLQKLTRMLRVHPDPKWKQEQQELIKGLK [R35G] | -0.14 kcal/mol |
| HERALMVNRLQKLTRMLRVHPDPKWKQEQQELIKLLK [R35L] | 1.73 kcal/mol |
| HERALMVNRLQKLTRMLRVHPDPKWKQEQQELIKFLK [R35F] | 1.18 kcal/mol |
| HERALMVNRLQKLTRMLRVHPDPKWKQEQQELIKWLK [R35W] | 1.42 kcal/mol |
| HERALMVNRLQKLTRMLRVHPDPKWKQEQQELIKILK [R35I] | 1.58 kcal/mol |
| HERALMVNRLQKLTRMLRVHPDPKWKQEQQELIKMLK [R35M] | 0.84 kcal/mol |

| Variant | folding stability dG |
| --- | --- |
| HERALMVNRLQKLTRMLRVHPDPKWKQEQQELHKRLK [I33H] | -0.268 kcal/mol |
| HERALMVNRLQKLTRMLRVHPDPKWKQEQQELVKRLK [I33V] | 0.738 kcal/mol |
| HERALMVNRLQKLTRMLRVHPDPKWKQEQQELKKRLK [I33K] | 0.269 kcal/mol |
| HERALMVNRLQKLTRMLRVHPDPKWKQEQQELRKRLK [I33R] | 0.898 kcal/mol |
| HERALMVNRLQKLTRMLRVHPDPKWKQEQQELWKRLK [I33W] | 0.93 kcal/mol |
| HERALMVNRLQKLTRMLRVHPDPKWKQEQQELGKRLK [I33G] | -0.702 kcal/mol |
| HERALMVNRLQKLTRMLRVHPDPKWKQEQQELYKRLK [I33Y] | 0.751 kcal/mol |
| HERALMVNRLQKLTRMLRVHPDPKWKQEQQELQKRLK [I33Q] | -0.155 kcal/mol |
| HERALMVNRLQKLTRMLRVHPDPKWKQEQQELMKRLK [I33M] | 0.592 kcal/mol |
| HERALMVNRLQKLTRMLRVHPDPKWKQEQQELNKRLK [I33N] | 0.375 kcal/mol |
| HERALMVNRLQKLTRMLRVHPDPKWKQEQQELTKRLK [I33T] | 0.17 kcal/mol |
| HERALMVNRLQKLTRMLRVHPDPKWKQEQQELAKRLK [I33A] | 0.217 kcal/mol |
| HERALMVNRLQKLTRMLRVHPDPKWKQEQQELEKRLK [I33E] | -0.101 kcal/mol |
| HERALMVNRLQKLTRMLRVHPDPKWKQEQQELLKRLK [I33L] | 1.17 kcal/mol |
| HERALMVNRLQKLTRMLRVHPDPKWKQEQQELFKRLK [I33F] | 0.663 kcal/mol |
| HERALMVNRLQKLTRMLRVHPDPKWKQEQQELSKRLK [I33S] | -0.232 kcal/mol |
| HERALMVNRLQKLTRMLRVHPDPKWKQEQQEYIKRLK [L32Y] | -0.525 kcal/mol |
| HERALMVNRLQKLTRMLRVHPDPKWKQEQQEIIKRLK [L32I] | 0.927 kcal/mol |
| HERALMVNRLQKLTRMLRVHPDPKWKQEQQEMIKRLK [L32M] | -0.196 kcal/mol |
| HERALMVNRLQKLTRMLRVHPDPKWKQEQQEFIKRLK [L32F] | -0.201 kcal/mol |
| HERALMVNRLQKLTRMLRVHPDPKWKQEQQEWIKRLK [L32W] | -0.364 kcal/mol |
